Test: soluble fraction after stress (log2 fold change); higher = more stays soluble; pooled small domains, quantitative proteomics
Conditions: stress: 75 degC
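Also: 20 min heating vs room temperature control held 20 min.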

Row | Sequence | soluble fraction (log2)
1 | HMERPSLDQVLAHAKALGIAPARFVAYADGRWGTGWRLSPHGRARAWEELDRHRNDPLGYRDKLDVALQSG | -0.179
2 | HMESAQLIINVAGKVSNPGVYQLPQGSRVVDAIEAAGKQLKGVDISDINLARVLVDGEQILVGGV | 0.363
3 | HMESAVDVFRSILKEKGVTEEEVRQVVAARGKYTLETPIDDYPNEFLYGYVIRYWDQIFDIIQQSREAK | -1.06
4 | HMESEAKLGVAFNGKTRFDMTFPADADNKTIEEAVLADERAQKYLEGFQVAKVIIVPKRMVNIVLK | -0.189
5 | HMESEIYKKIEKSRLLELAFTKSQKGDLTGAYDLYYQAFTKYDVIADNQNRYFEDFISLIRRKQQQD | -2.54
6 | HMESGLPLPRFVSLGADEVNLRTGPGLRYPVAWVFVRKALPVEIVAEFEQWRRVRDFEGAEGWVHKAML | -0.163
7 | HMESGSSKINQDILETFTRGKKSLSISDISRLSGHHRHTVARYLDNLVSSGKLEMRQHGQKKKYYLSDIQP | -0.314
8 | HMESILDDFPGLGAVRRAALLEHFGDIDRLRAASAVEITEVDGFGDVLARELHDFLHRPKPDA | -0.515
9 | HMESKKKTYTVKSGDTLVSILKREGVPQELIFKDYLGLFLELNPQISDINKLRVGQEIVLPVPG | 0.05
10 | HMESLGEKIKNIRISNNLKQSELADILHISEKTISSWENNRTTPDLNMIYKISNYFKKSFYYLISDDYI | -0.908
11 | HMESMIGSLRGRLLELFGDGEVLIEVGGVGYRVIVTPTTTVRLGDVGGDVFVHVHHHIREADQTLYGF | -0.48
12 | HMESPSGGHRIALAFDQGTARAVDATYARLTGAGYEGRTKPWDAPWGQRYATVFDPDGNSVDLFAALE | -0.445
13 | HMESRDRVRQASAAGYRFMSTMAGHEPGFEEASRALFAGDQTAFEARITAWPVDVQTHLKKILAEAFTT | -1.17
14 | HMESRLQAAIALRKAGEHEQSREALKILADEPALRAQALLNIAWSFDNQGHERDAEGYYLAAIE | -0.381
15 | HMESSKLQASIINYLERRPTQKFTAEELFKGLSLEKASVFNELVKELTSLERSHKVEITADDKFKIARPQ | -0.331
16 | HMESSSQLGFELARLVESGNDEEARALVQAKELSEADERKWLYHLGNLLHAAGRPLQASAIWREVGT | 0.0141
17 | HMESVQWSVFPSAKYVTIISFDPTTSGGSATAKFKVSDEARSKGFRFRIEAAIGEGIMRSEMYVIEE | 0.215
18 | HMESWNRARILEKIRELHAQGVALNNASMRRLGYRGMMEAAARPQNFGSWEAAVRAAGIDYDRV | -0.275
19 | HMETAVMPDVMKLDSTTAIQALKDKGFATIETYEVKSDRPAGVVVRQSETADSVVALSKEILLGVSNGADY | ≥ 1.04
20 | HMETGFADTLRKFRKEADMTQEKLAEALGVTTGAVYKWENGRSTPEVRLLVEMADLFGTSVDALLDYKVR | -1.33
21 | HMETGKLIKELRLKKGMTQEELADKTEVSSRTIQRIENGEVDPRAYTLQMIARALEVDYSLFME | -0.408
22 | HMETIELSAPGGVRLDKLIADGTELSRSAAVKLIEQGNVLVNGSPAGKKDIPAAGAAVEITLPEPQ | 0.0135
23 | HMETIGENIKTYRQKKGYTQEEVANRLHVTRQTISKWEKNYSIPDAEVLVKLADVLEVQTSQLLGV | -0.374
24 | HMETIGKRVRAARQELGLTMKQLHEQTGLSTGNISDIENDRNTPSVSSLVALGRALRRSLDWLLTGEE | -0.959
25 | HMETISEIWRLIDGLDEIYRVPLTMYYRSNRSVREIAETLGLSARTVETRIYRARRMIREKWSN | -2.06
26 | HMETITDRLNRRSLELNVSQADIIRTTGAGRGTVSGWFSGANAPSAKYLESLAVALKTSTTWLLSGKD | -2.23
27 | HMETKERDEQFLEMIRQNEGIIFKVASFYVDKEHPIGDLYQEVVLNLWKGYPSFRGESKYSTWIYRIALNT | 0.058
28 | HMETKPTELMLEVHELRIGMFVHLDLGWMDHPFPLNRFKISTNSQIEQIKGLRLKQVKVMTALSDPTALS | -2.29

Row | Sequence | soluble fraction (log2)
29 | HMETKQYIVEAQDEGTRLDVYLTKELGQSRSYVQSLVKEGHVQVNGKTGKSNLKLSSSSEILVTIPEVQ | 0.067
30 | HMETLKINTHLGTLNLKKRGKKGTWQINIYFKNIEGDNHYRQSTGTNQLELAKAKAMNMITTEYSNRLAGI | -1.67
31 | HMETMSYAEFNAIRIGKAKLMLADPSLKIWEISEAVGYTDTAHFARTFKKLEGMSANEYRNSL | -0.862
32 | HMETNFTGTRIATARKAKNMSQAQLAQQLFISPQAVGKWERGESIPDIVTVVKLADVLGVDLNYFSE | -0.572
33 | HMETPQIVARGDLITMVFRSGSLVLTAKGKALENGAMGDTIRVVNSDSNKTLAARVSASREVTVSE | -0.549
34 | HMETPSNTAGITHATSDGYIFKGESDIIGRNSFGFIVKHGSHNHIIPFDSLRGTKWEYLINKYT | 0.000248
35 | HMETSVDEVYKKIQAYIEAEDKHKPLSDQKLAEQLQSDGLKVSRRTVAKYREKLNIASSSKRKR | 0.242
36 | HMETTVPNVLNHNISTGEILLKENNLNFRIQYIPSNKDEAVGTIINSVPTSGEKVKFGTVVDLKVL | 0.146
37 | HMETVRHFRLDWSQAADRLDKVLASLMNDVSRARIQEWIRLGAVSVNGEILTDVRAKVAGGDAIDVTPQTA | -0.722
38 | HMETVRLSVDAQGAYYWNEQRVDDSALPDLLREASGRKPQPDLHIRGDKAVRYERVAEAMAAAQRAGLKKI | 0.272
39 | HMETVVTEVKTTDVVNIRTSDSETADKLSKAAIGDTFPLLEERGNGWSKVAYNGEEAFIKSDYLEPSKTE | 0.0124
40 | HMETYEFNITDKEQTGMRVDKLLPELNSDWSRNQIQDWIKAGLVVANDKVVKSNYKVKLNDHIVVTEKEV | 0.0567
41 | HMETYPINVETTGTNVLLRTGPSTSSNIIKTITDKGTVFLSIERGINSDWQKVVTPDGTIGYMSGKY | 0.00405
42 | HMEVAVQFIEFKIPENHAWIGKEIREITFPPESILVLIIRDGKKLVPNGKTVLKEGDSLILSGKASD | -1.43
43 | HMEVDDEAIYQGHEPSIRLHRLLKDVGYNSALLPSVVTQIFKDFPGIELAKALPIAMQLLNED | -0.617
44 | HMEVFGDTKEEQMIIDILKLGITDLEHLQAKSMLEPAIFSQTLTMLEISGKIRPLGAGHWTL | -2.87
45 | HMEVFTPSEANVAEAREILAAMATAKANGEGATVYKGRLVDIASIKQAEVIVRQSEMIQSAH | 0.696
46 | HMEVIDQLFKIALTLFDIDKGENNSISQDLVDKVIEQMKTTAPTFIKRELSEDEVKKLRFEIQNHFNV | -0.482
47 | HMEVKSGFVHLTGAVKSPGVYPISIGMRLFEVIALAGGFTAKADRESVNLARTVTDGEQIIVSGSG | -3.72
48 | HMEVLEGFIEDIKFKSEESGYTVAKLNNRNKSIVIVGTMPFISEGQHVKLTGEWKIHQKFGAQFNVKELEE | -0.923
49 | HMEVMYFIYQQEEPMRIDKFLVNEMEDFSRNSIQIYIKDNHVLVNDKVVKANYILKKGDAISITIPDPI | -1.14
50 | HMEVNMEEKMEFVHSYIKTHKTFLFRQLLSESKSRTQVIVTFLVILELIKGGKISVTQENRTDDILINSL | 0.0528
51 | HMEVPDTIIRLRELVAAMPEQWQKVYRLVFMEGLSKAKAGKKIGISDVRVGQLVKKINAAIAGDETLK | -1.01
52 | HMEVPMELPRQLRANRERLGLSQEDVAHAIYVSRQTMSSWERGKTYPDVQSLMLLSHLFGISIDELVKGDV | -1.57
53 | HMEVPVQYIKFKIPENHFWAKKKVADIILPPETLLVLLQRGSDKMIPDGETVLLPEDTLVLIAKAPG | -0.479
54 | HMEVSVPDFTGMSKSDAQNAAKEAGLTVNFEEDYDNQVPAGQVIRSNPSAGEKVKKNSSVTVTLSKGSN | 0.128
55 | HMEVSYSLPRFHKGKNPYVDFYQVDPRTLRMRRKKFLLRGVRDAVLLEQRAADLVALLTERLHSGWNAWDD | -2.1
